Test results as given in patent publication US20190263932A1 (Eli Lilly, published 2019).
Changes are numbered by the printed parent chain.

Columns and labels:
[1] = target: T1, recombinant human TrkA protein (human, UniProt P04629-2 34-407, limits assumed); assay: NGF-blocking ELISA on coated human TrkA, 100 nM btNGF; mAb 0.63 nM
Procedure: (§1) Each row of a 96-well high-binding clear-bottom microtiter plate (Microlon, #655061) was coated overnight at 4° C. with 100 μL/well of recombinant human TrkA protein, diluted to 2 μg/mL in phosphate buffered saline, pH 7.2 (PBS). The next day, the coating solution was removed, and the plate was blocked with 150 μL of Casein-PBS (Thermo Scientific, #37528) for 1 hour at 25° C. with gentle shaking. The plate was then washed three times with PBS supplemented with 0.05% Tween20 (PBST). A two-fold dilution series of exemplified antibodies, along with IgG4 and IgG1 isotype control antibodies, was generated starting at 20 nM in Casein-PBS. 100 μL of the each dilution series sample was added to a well for 30 min at 37° C. with gentle shaking. The plate was then washed three times with PBST. […] The plate was then washed three times with PBST. A 1:3500 dilution of a 1 mg/mL stock solution of streptavidin-HRP (Thermo Scientific, #21130) in Casein-PBS was prepared and […] was added to each well for 20 min at 37° C. with gentle shaking. The plate was washed three times with PBST. […] The reaction was stopped by addition of 100 μL of 1M H₃PO₄ to each well. The absorbance at 450 nm (Abs450) was measured using a SpectraMax 340PC plate reader (Molecular Devices).

[2] = target: T1, recombinant human TrkA protein; assay: NGF-blocking ELISA on coated human TrkA, 100 nM btNGF; mAb 0.04 nM
Procedure: as §1

[3] = target: TrkA on rat NEUROSCREEN-1 cells (pheochromocytoma PC12 subclone) (rat, UniProt P35739 33-799); assay: cell-based or functional assay
[4] = target: T1, recombinant human TrkA protein; assay: NGF-blocking ELISA on coated human TrkA, 100 nM btNGF; mAb 0.02 nM
Procedure: as §1

[5] = target: T1, recombinant human TrkA protein; assay: NGF-blocking ELISA on coated human TrkA, 100 nM btNGF
Procedure: as §1

[6] = target: T1, recombinant human TrkA protein; assay: NGF-blocking ELISA on coated human TrkA, 100 nM btNGF; mAb 0.16 nM
Procedure: as §1

[7] = target: T2, rat TrkA receptor expressed in transfected HEK293 cells (rat, UniProt P35739 33-799); assay: cell-based or functional assay
[8] = target: T3, Human TrkA Extracellular Domain Isoform 2 (33-408) (human, UniProt P04629 33-414); assay: SPR, mAb captured on Protein A chip, 37 C
T3 construct: SPR analyte; also called Human TrkA Isoform 2
Procedure: (§2) The binding kinetics and affinity of exemplified antibodies to human, cynomolgus monkey, rat, mouse, and rabbit TrkA are determined as described below using a surface plasmon resonance assay on a BIACORE™ 8K instrument (GE Healthcare). Two different isoforms of human TrkA (isoform 1 and isoform 2) are evaluated along with human TrkB and human TrkC. […] All FC2 on all eight channels are set to capture approximately 89 response units (RU) of antibody at a flow rate of 10 μL/min. The antibody sample is prepared at 1 μg/mL by dilution into the running buffer. […] Before the analysis cycle, the chip is regenerated with 3 injections of glycine (pH ˜1.5) at 100 μL/min for a contact time of 15 seconds on FC1 and FC2 in order to clean the surface of the chip.

[9] = target: T4, Human TrkA Extracellular Domain Isoform 1 (33-414) (human, UniProt P04629 33-414); assay: SPR, mAb captured on Protein A chip, 37 C
T4 construct: SPR analyte; also called Human TrkA Isoform 1
Procedure: as §2

[10] = target: T1, recombinant human TrkA protein; assay: NGF-blocking ELISA on coated human TrkA, 100 nM btNGF; mAb 20 nM
[11] = target: T2, rat TrkA receptor expressed in …; assay: cell-based or functional assay; remark: listed apart in the source
[12] = target: T1, recombinant human TrkA protein; assay: NGF-blocking ELISA on coated human TrkA, 100 nM btNGF; mAb 5 nM
Procedure: as §1

[13] = target: T1, recombinant human TrkA protein; assay: NGF-blocking ELISA on coated human TrkA, 100 nM btNGF; mAb 0.08 nM
Procedure: as §1

[14] = target: T1, recombinant human TrkA protein; assay: NGF-blocking ELISA on coated human TrkA, 100 nM btNGF; mAb 1.25 nM
Procedure: as §1

[15] = target: T1, recombinant human TrkA protein; assay: NGF-blocking ELISA on coated human TrkA, 100 nM btNGF; mAb 2.5 nM
Procedure: as §1

[16] = target: T1, recombinant human TrkA protein; assay: NGF-blocking ELISA on coated human TrkA, 100 nM btNGF; mAb 0.31 (printed pM, two-fold series gives nM)
Procedure: as §1

[17] = target: T1, recombinant human TrkA protein; assay: NGF-blocking ELISA on coated human TrkA, 100 nM btNGF; mAb 10 nM
Procedure: as §1

T1 sequence (P04629 other isoform, or with tags, fused parts or gaps limits assumed): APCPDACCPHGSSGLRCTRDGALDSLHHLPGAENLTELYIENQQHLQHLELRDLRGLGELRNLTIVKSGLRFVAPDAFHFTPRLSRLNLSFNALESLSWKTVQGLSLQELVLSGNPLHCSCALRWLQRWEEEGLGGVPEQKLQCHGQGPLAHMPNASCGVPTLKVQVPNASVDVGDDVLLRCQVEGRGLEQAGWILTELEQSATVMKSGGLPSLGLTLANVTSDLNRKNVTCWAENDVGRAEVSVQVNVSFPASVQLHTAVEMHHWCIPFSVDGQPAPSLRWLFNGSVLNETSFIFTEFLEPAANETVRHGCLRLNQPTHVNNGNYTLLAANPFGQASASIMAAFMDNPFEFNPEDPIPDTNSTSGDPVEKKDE
T4 sequence (P04629 other isoform, or with tags, fused parts or gaps): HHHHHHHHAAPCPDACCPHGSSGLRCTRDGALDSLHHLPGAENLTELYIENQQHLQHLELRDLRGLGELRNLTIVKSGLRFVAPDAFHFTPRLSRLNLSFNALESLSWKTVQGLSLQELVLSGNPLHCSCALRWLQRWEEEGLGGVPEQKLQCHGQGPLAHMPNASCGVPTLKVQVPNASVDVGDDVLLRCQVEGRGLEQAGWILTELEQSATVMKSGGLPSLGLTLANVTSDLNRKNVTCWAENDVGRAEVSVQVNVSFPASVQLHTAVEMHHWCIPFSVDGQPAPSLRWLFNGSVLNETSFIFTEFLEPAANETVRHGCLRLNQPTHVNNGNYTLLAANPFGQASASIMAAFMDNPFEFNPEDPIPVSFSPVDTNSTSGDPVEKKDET
T2 sequence (P35739 33-799): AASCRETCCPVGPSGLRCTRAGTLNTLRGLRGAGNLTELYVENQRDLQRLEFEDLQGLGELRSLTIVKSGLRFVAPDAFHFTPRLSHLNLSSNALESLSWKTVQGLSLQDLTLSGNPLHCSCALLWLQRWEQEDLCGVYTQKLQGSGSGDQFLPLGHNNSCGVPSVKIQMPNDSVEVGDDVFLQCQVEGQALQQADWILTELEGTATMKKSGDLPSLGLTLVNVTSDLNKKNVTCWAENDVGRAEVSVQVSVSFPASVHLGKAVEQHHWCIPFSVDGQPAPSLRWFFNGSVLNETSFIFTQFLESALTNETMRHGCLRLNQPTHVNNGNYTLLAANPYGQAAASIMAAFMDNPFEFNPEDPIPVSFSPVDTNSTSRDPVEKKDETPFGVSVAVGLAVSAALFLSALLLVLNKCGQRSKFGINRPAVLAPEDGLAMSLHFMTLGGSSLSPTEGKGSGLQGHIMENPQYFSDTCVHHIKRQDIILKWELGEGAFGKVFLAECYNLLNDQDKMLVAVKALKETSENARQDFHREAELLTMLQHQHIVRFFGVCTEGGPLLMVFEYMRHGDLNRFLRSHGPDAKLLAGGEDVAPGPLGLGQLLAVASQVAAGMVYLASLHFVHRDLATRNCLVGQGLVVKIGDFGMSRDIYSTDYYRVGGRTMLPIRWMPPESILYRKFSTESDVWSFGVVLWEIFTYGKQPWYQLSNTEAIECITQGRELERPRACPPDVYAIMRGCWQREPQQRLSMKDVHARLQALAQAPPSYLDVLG
Chain of TrkA on rat NEUROSCREEN-1 cells (pheochromocytoma PC12 subclone) (P35739 33-799): as above
T3 sequence (P04629 other isoform, or with tags, fused parts or gaps): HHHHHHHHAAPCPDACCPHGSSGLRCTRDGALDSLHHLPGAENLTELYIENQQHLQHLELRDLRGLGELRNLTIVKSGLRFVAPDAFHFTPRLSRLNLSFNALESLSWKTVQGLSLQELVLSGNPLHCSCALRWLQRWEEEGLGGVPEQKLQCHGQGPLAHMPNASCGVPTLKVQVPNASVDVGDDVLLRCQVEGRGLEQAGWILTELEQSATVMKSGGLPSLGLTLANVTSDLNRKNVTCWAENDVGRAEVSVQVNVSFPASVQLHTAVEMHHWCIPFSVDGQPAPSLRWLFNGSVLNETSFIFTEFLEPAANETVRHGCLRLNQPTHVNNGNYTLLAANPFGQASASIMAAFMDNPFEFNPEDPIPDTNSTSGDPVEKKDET

B1: mAb D (antibody, human IgG1, kappa)
heavy: EVQLVESGGGLVKPGGSLRLSCAASGFTFSGVSINWVRQAPGKGLEWVSSETTSSGTIYYADSVKGRFTISRDNAKNSLYLQMNSLRAEDTAVYYCARSYYYGMDVWGQGTTVTVSSASTKGPSVFPLAPSSKSTSGGTAALGCLVKDYFPEPVTVSWNSGALTSGVHTFPAVLQSSGLYSLSSVVTVPSSSLGTQTYICNVNHKPSNTKVDKRVEPKSCDKTHTCPPCPAPEAEGAPSVFLFPPKPKDTLMISRTPEVTCVVVDVSHEDPEVKFNWYVDGVEVHNAKTKPREEQYNSTYRVVSVLTVLHQDWLNGKEYKCKVSNKALPSSIEKTISKAKGQPREPQVYTLPPSREEMTKNQVSLTCLVKGFYPSDIAVEWESNGQPENNYKTTPPVLDSDGSFFLYSKLTVDKSRWQQGNVFSCSVMHEALHNHYTQKSLSLSPGK
light: DIVMTQTPLSSPVTLGQPASISCRSSQSLVHRAGNTYLSWLQQRPGQPPRLLIYKISNRFSGVPDRFSGSGAGTDFTLKISRVEAEDVGVYYCMQARQFPLTFGGGTKVEIKRTVAAPSVFIFPPSDEQLKSGTASVVCLLNNFYPREAKVQWKVDNALQSGNSQESVTEQDSKDSTYSLSSTLTLSKADYEKHKVYACEVTHQGLSSPVTKSFNRGEC
notes: Human IgG1EN/Kappa
Absorbance 450 nm [1]: 0.38 | Absorbance 450 nm [2]: 1 | % Max Stimulation of neurite outgrowth [3]: 17% | IC50, inhibition of NGF-induced neurite outgrowth [3]: 0.08 nM | Absorbance 450 nm [4]: 1.05 | IC50 [5]: 0.37 nM | Absorbance 450 nm [6]: 0.89 | % Max Inhibition, pTrkA [7]: 40% | IC50 (nM), pTrkA [7]: 0.68 nM | pTrkA counts per second, NGF +0.1 pM mAb [7]: 4.53e+06 counts per second | pTrkA counts per second, NGF +1 pM mAb [7]: 4.06e+06 counts per second | pTrkA counts per second, NGF +10 pM mAb [7]: 4.52e+06 counts per second | pTrkA counts per second, NGF +100 pM mAb [7]: 3.79e+06 counts per second | pTrkA counts per second, NGF +1 nM mAb [7]: 3.16e+06 counts per second | pTrkA counts per second, NGF +10 nM mAb [7]: 2.43e+06 counts per second | pTrkA counts per second, NGF +100 nM mAb [7]: 2.59e+06 counts per second | pTrkA counts per second, NGF +1 uM mAb [7]: 1.93e+06 counts per second | Kd [8]: 4.9 nM | koff [8]: 0.0013 s⁻¹ | kon [8]: 250000 M⁻¹ s⁻¹ | Kd [9]: 4.4 nM | koff [9]: 0.0012 s⁻¹ | kon [9]: 280000 M⁻¹ s⁻¹ | Absorbance 450 nm [10]: 0.19 | % Max stimulation, pTrkA [11]: 77% | EC50 (nM), pTrkA [11]: 0.17 nM | pTrkA counts per second, 0.1 pM mAb, no NGF [11]: 571000 counts per second | pTrkA counts per second, 1 pM mAb, no NGF [11]: 585000 counts per second | pTrkA counts per second, 10 pM mAb, no NGF [11]: 627000 counts per second | pTrkA counts per second, 100 pM mAb, no NGF [11]: 1.25e+06 counts per second | pTrkA counts per second, 1 nM mAb, no NGF [11]: 2.39e+06 counts per second | pTrkA counts per second, 10 nM mAb, no NGF [11]: 2.97e+06 counts per second | pTrkA counts per second, 100 nM mAb, no NGF [11]: 2.85e+06 counts per second | pTrkA counts per second, 1 uM mAb, no NGF [11]: 2.05e+06 counts per second | Absorbance 450 nm [12]: 0.19 | Absorbance 450 nm [13]: 0.96 | Absorbance 450 nm [14]: 0.19 | Absorbance 450 nm [15]: 0.16 | Absorbance 450 nm [16]: 0.67 | Absorbance 450 nm [17]: 0.17

B2: mAb E (antibody, human IgG1, kappa)
heavy: B1 heavy
light: B1 light with A33Q
notes: Human IgG1EN/Kappa
Absorbance 450 nm [1]: 0.41 | Absorbance 450 nm [2]: 1.04 | % Max Stimulation of neurite outgrowth [3]: 17% | IC50, inhibition of NGF-induced neurite outgrowth [3]: 0.07 nM | Absorbance 450 nm [4]: 1.1 | IC50 [5]: 0.35 nM | Absorbance 450 nm [6]: 0.92 | % Max Inhibition, pTrkA [7]: 37% | IC50 (nM), pTrkA [7]: 0.68 nM | pTrkA counts per second, NGF +0.1 pM mAb [7]: 2.94e+06 counts per second | pTrkA counts per second, NGF +1 pM mAb [7]: 3.38e+06 counts per second | pTrkA counts per second, NGF +10 pM mAb [7]: 3.44e+06 counts per second | pTrkA counts per second, NGF +100 pM mAb [7]: 3.7e+06 counts per second | pTrkA counts per second, NGF +1 nM mAb [7]: 2.27e+06 counts per second | pTrkA counts per second, NGF +10 nM mAb [7]: 2.23e+06 counts per second | pTrkA counts per second, NGF +100 nM mAb [7]: 1.7e+06 counts per second | pTrkA counts per second, NGF +1 uM mAb [7]: 1.88e+06 counts per second | Kd [8]: 5.2 nM | koff [8]: 0.0014 s⁻¹ | kon [8]: 260000 M⁻¹ s⁻¹ | Kd [9]: 4.8 nM | koff [9]: 0.0013 s⁻¹ | kon [9]: 270000 M⁻¹ s⁻¹ | Absorbance 450 nm [10]: 0.19 | % Max stimulation, pTrkA [11]: 74% | EC50 (nM), pTrkA [11]: 0.3 nM | pTrkA counts per second, 0.1 pM mAb, no NGF [11]: 739000 counts per second | pTrkA counts per second, 1 pM mAb, no NGF [11]: 636000 counts per second | pTrkA counts per second, 10 pM mAb, no NGF [11]: 610000 counts per second | pTrkA counts per second, 100 pM mAb, no NGF [11]: 1.01e+06 counts per second | pTrkA counts per second, 1 nM mAb, no NGF [11]: 1.82e+06 counts per second | pTrkA counts per second, 10 nM mAb, no NGF [11]: 2.46e+06 counts per second | pTrkA counts per second, 100 nM mAb, no NGF [11]: 2.02e+06 counts per second | pTrkA counts per second, 1 uM mAb, no NGF [11]: 2.05e+06 counts per second | Absorbance 450 nm [12]: 0.21 | Absorbance 450 nm [13]: 1.05 | Absorbance 450 nm [14]: 0.25 | Absorbance 450 nm [15]: 0.19 | Absorbance 450 nm [16]: 0.68 | Absorbance 450 nm [17]: 0.19
